Marks after values point to notes of the source that are not given here.
Tests used:
[1] = Stability (RCP by radio-HPLC) of purified scale-up 64Cu-DOTATATE reactions; type: physicochemical; details: for RCP: Sep-Pak purified material
Method: (§1) HPLC was performed using an Agilent 1200 series system equipped with a variable wavelength UV-Vis detector followed in-line with a sodium iodide detector (Bioscan B-FC-200P). A Phenomenex Luna C18 column (150 mm×.4.6 mm, 5 μm) was used. The mobile phase was made of Solvent A and Solvent B. Solvent A was a 0.1% trifluoroacetic acid (TFA) in HRW, and solvent B was 0.1% TFA acid in acetonitrile (ACN). The gradient was (i) 15-40% Solvent B in A for 10 min, 40% Solvent B in A from 10 to 15 min, 15% Solvent B in A from 15-16 min, and 15% Solvent B in Solvent A from 16-19 min. The flow rate was 1.2 mL/min, and UV detection was monitored at 220 nm.
Radiolabeling reactions followed the general procedure described herein. A solution of ^64Cu in 0.05 M HCl was mixed with a solution of DOTATATE in sodium acetate/gentisic acid buffer. The reaction mixture was heated to 30° C. for 5 min and then purified via a C-18 solid phase extraction cartridge. The purified ^64Cu-DOTATATE was collected in 2 mL of 50% EtOH and subsequently diluted with an ascorbic acid solution. The final product was assayed for activity and the radiochemical purity (RCP) was evaluated via radio-HPLC analysis. Characterization was performed against non-radioactive DOTATATE (tR=6.3 min) and Cu-DOTATATE (tR=7.3 min) standards.
Representative reactions for 100 mCi-7000 mCi batch sizes and results are outlined in Table 9. […] The remainder of the activity eluted (tR=6.2-7.2 min) are attributed to degradation products due to radiolysis.

[2] = Stability of 64Cu-DOTATATE in final dose matrix (NaOAsc, EtOH, GA) by HPLC; type: physicochemical
Method: as §1
The effect of ethanol (EtOH) and gentisic acid (GA) content in the final dose matrix on chemical stability of ^64Cu-dotatate was assessed. In these experiments, 500 mCi reactions were performed using the general procedure outlined in Example 2 and the ^64Cu-DOTATATE product was eluted from the Sep-Pak with 2 mL of 50% EtOH (aq) into 5 mL of 50 mg/mL NaOAsc buffer to serve as the purified ^64Cu-DOTATATE stock solution. From the ^64Cu-DOTATATE stock, 1 mL aliquots were transferred to vials containing the following solutions:
In those samples, the decrease in ^64Cu-DOTATATE correlated with an increase in free ^64Cu and two unknown radioimpurities at tR=6.6 min and 7.1 min.

[3] = target: somatostatin receptors, subtype 2 receptors (SSTR2) (Homo sapiens, UniProt P30874); details: cited from earlier work
Sequence of somatostatin receptors, subtype 2 receptors (SSTR2) (P30874 whole entry): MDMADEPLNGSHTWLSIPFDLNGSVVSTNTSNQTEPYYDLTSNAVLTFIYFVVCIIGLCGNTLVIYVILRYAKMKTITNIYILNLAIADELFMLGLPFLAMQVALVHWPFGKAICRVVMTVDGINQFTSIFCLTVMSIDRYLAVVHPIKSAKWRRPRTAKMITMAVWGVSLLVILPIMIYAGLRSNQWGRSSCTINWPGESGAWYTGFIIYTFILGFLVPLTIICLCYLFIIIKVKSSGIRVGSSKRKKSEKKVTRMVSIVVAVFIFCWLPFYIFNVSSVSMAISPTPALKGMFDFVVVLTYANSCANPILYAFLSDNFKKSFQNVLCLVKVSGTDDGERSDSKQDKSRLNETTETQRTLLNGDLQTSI

[4] = reaction 120.6 mCi 64Cu at TOS, 200 μg DOTATATE
[5] = reaction 481 mCi 64Cu at TOS, 1000 μg DOTATATE, average of two samples
[6] = reaction 1190 mCi 64Cu at TOS, 2000 μg DOTATATE, average of two samples
[7] = reaction 2402 mCi 64Cu at TOS, 4000 μg DOTATATE, average of two samples
[8] = reaction 7297 mCi 64Cu at TOS, 4378 μg DOTATATE

## C[C@@H](O)[C@H](NC(=O)[C@@H]1CSSC[C@H](NC(=O)[C@@H](Cc2ccccc2)NC(=O)CN2CCN3CCN(CC(=O)O)CCN(CC2)CC(=O)[O][64Cu][O]C(=O)C3)C(=O)N[C@@H](Cc2ccc(O)cc2)C(=O)N[C@H](Cc2c[nH]c3ccccc23)C(=O)N[C@@H](CCCCN)C(=O)N[C@@H]([C@@H](C)O)C(=O)N1)C(=O)O [^64Cu-DOTATATE, copper (Cu64)-N-[(4,7,10-Tricarboxymethyl-1,4,7,10-tetraazacyclododec-1-yl)acetyl]-Dphenylalanyl-L-cysteinyl-L-tyrosyl-D-tryptophanyl-L-lysyl-L-threoninyl-L-cysteinyl-L-threonine-cyclic (2-7) disulfide]
[1]; purified reaction solutions
  period over which stable (HPLC): at least 47 h
[1]; [4]
  RCP Day 1 (+24 hr): 97.7%^
  RCP Day 2 (+47 hr): 95.0%^
  RCP: 98.9%^
[1]; [5]
  RCP: 99.4%^c
  RCP Day 1 (+24 hr): 99.7%^c
  RCP Day 2 (+47 hr): 99.4%^c
[1]; [6]
  RCP: 99.6%^c
  RCP Day 1 (+24 hr): 99.4%^c
  RCP Day 2 (+47 hr): 99.7%^c
[1]; [7]
  RCP: 99.2%^c
  RCP Day 1 (+24 hr): 99.4%^c
  RCP Day 2 (+47 hr): 99.3%^c
[1]; [8]
  RCP Day 2 (+47 hr): 95%
  RCP: 95%
[2]; sodium ascorbate 45-122 mg/mL, ethanol 1.6%-5.2%, activity concentration 3.6-16 mCi/mL at time of preparation
  purity, chemically stable for two days: greater than 95%
[2]; sodium ascorbate up to 98 mg/mL, ethanol up to 9.7%, activity concentration approximately 18 mCi/mL at time of preparation
  purity, remained stable: greater than 90%
[3]
  affinity for somatostatin receptor subtypes: highest affinity for subtype 2 receptors (SSTR2)

From patent publication US12102696B2, “Radiolabeling and formulation for scale up of 64Cu-DOTATATE” (Curium US LLC, priority 2020, dated 2024)
